Laboratory results reported in US20260049138A1 (Chugai, published 2026).
Numbering of substitutions follows the chain as printed. In names and notes the source's numbering stands.

Molecular target: T1, CD3ε homodimer protein (human, UniProt P07766 23-126, limits assumed, sulfo-tag or biotin label in the ECL assays; amine-coupled to the chip in SPR)
T1 construct: also called human CD3ε homodimer protein; CD3 (CD3ε)
Test: SPR Biacore T200; CD3ε homodimer on CM4 chip;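 note: Single-residue variant antibodies injected as analyte over CD3ε homodimer immobilized by amine coupling, run at 25 °C in HBS-EP+ buffer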

T1 sequence (P07766 23-126 limits assumed): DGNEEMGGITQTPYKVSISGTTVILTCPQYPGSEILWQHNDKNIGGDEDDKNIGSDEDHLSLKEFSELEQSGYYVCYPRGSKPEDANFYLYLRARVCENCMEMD

B1: CE115HA000 K75R one-arm antibody (antibody, human IgG1, kappa, L234A L235A, N297A, name in Kabat numbering)
heavy: QVQLVESGGGVVQPGRSLRLSCAASGFTFSNAWMHWVRQAPGKGLEWVAQIKAKSNNYATYYAESVKGRFTISRDDSRNSLYLQMNSLKTEDTAVYYCRYVHYGAYYGVDAWGQGTTVTVSSASTKGPSVFPLAPSSKSTSGGTAALGCLVKDYFPEPVTVSWNSGALTSGVHTFPAVLQSSGLYSLSSVVTVPSSSLGTQTYICNVNHKPSNTKVDKKVEPKSCDKTHTCPPCPAPEAAGGPSVFLFPPKPKDTLMISRTPEVTCVVVDVSHEDPEVKFNWYVDGVEVHNAKTKPREEQYASTYRVVSVLTVLHQDWLNGKEYKCKVSNKALPAPIEKTISKAKGQPREPQVYTLPPSRCELTKNQVSLSCAVKGFYPSDIAVEWESNGQPENNYKTTPPVLDSDGSFFLVSKLTVDKSRWQQGNVFSCSVMHEALHNHYTQKSLSLSPDYKDDDDK
chain: EPKSSDKTHTCPPCPAPELLGGPSVFLFPPKPKDTLMISRTPEVTCVVVDVSHEDPEVKFNWYVDGVEVHNAKTKPREEQYNSTYRVVSVLTVLHQDWLNGKEYKCKVSNKALPAPIEKTISKAKGQPREPQVCTLPPSRDELTKNQVSLWCLVKGFYPSDIAVEWESNGQPENNYKTTPPVLDSDGSFFLYSKLTVDKSRWQQGNVFSCSVMHEALHNRYTQKSLSLSP
light: DIVMTQSPLSLPVTPGEPASISCRSSQSLVHSNRNTYLHWYQQKPGQAPRLLIYKVSNRFSGVPDRFSGSGSGTDFTLKISRVEAEDVGVYYCGQGTQVPYTFGQGTKLEIKRTVAAPSVFIFPPSDEQLKSGTASVVCLLNNFYPREAKVQWKVDNALQSGNSQESVTEQDSKDSTYSLSSTLTLSKADYEKHKVYACEVTHQGLSSPVTKSFNRGEC
ratio of amounts bound Z=Y/X (altered form / CE115HA000): 1.01

B2: CE115HA000 N31F one-arm antibody (antibody, human IgG1, kappa, L234A L235A, N297A, name in Kabat numbering)
heavy: B1 heavy with N31F, R78K
chain: B1 chain
light: B1 light
ratio of amounts bound Z=Y/X (altered form / CE115HA000): 0.62

B3: CE115HA000 N31R one-arm antibody (antibody, human IgG1, kappa, L234A L235A, N297A, name in Kabat numbering)
heavy: B1 heavy with N31R, R78K
chain: B1 chain
light: B1 light
ratio of amounts bound Z=Y/X (altered form / CE115HA000): 1.14

B4: CE115HA000 L78I one-arm antibody (antibody, human IgG1, kappa, L234A L235A, N297A, name in Kabat numbering)
heavy: B1 heavy with R78K, L81I
chain: B1 chain
light: B1 light
ratio of amounts bound Z=Y/X (altered form / CE115HA000): 1.34

B5: CE115HA000 N53I one-arm antibody (antibody, human IgG1, kappa, L234A L235A, N297A, name in Kabat numbering)
heavy: B1 heavy with N56I, R78K
chain: B1 chain
light: B1 light
ratio of amounts bound Z=Y/X (altered form / CE115HA000): 0.68

B6: CE115HA000 N53A one-arm antibody (antibody, human IgG1, kappa, L234A L235A, N297A, name in Kabat numbering)
heavy: B1 heavy with N56A, R78K
chain: B1 chain
light: B1 light
ratio of amounts bound Z=Y/X (altered form / CE115HA000): 0.7

B7: CE115HA000 N31Q one-arm antibody (antibody, human IgG1, kappa, L234A L235A, N297A, name in Kabat numbering)
heavy: B1 heavy with N31Q, R78K
chain: B1 chain
light: B1 light
ratio of amounts bound Z=Y/X (altered form / CE115HA000): 0.49

B8: CE115HA000 N31A one-arm antibody (antibody, human IgG1, kappa, L234A L235A, N297A, name in Kabat numbering)
heavy: B1 heavy with N31A, R78K
chain: B1 chain
light: B1 light
notes: One-arm antibody: altered VH-pE22Hh, Kn010G3, GLS3000-kappa; The same holds for m64 to m321
ratio of amounts bound Z=Y/X (altered form / CE115HA000): 0.5

B9: CE115HA000 N31D one-arm antibody (antibody, human IgG1, kappa, L234A L235A, N297A, name in Kabat numbering)
heavy: B1 heavy with N31D, R78K
chain: B1 chain
light: B1 light
ratio of amounts bound Z=Y/X (altered form / CE115HA000): 0.37

B10: CE115HA000 N53Q one-arm antibody (antibody, human IgG1, kappa, L234A L235A, N297A, name in Kabat numbering)
heavy: B1 heavy with N56Q, R78K
chain: B1 chain
light: B1 light
ratio of amounts bound Z=Y/X (altered form / CE115HA000): 1.1

B11: CE115HA000 N53D one-arm antibody (antibody, human IgG1, kappa, L234A L235A, N297A, name in Kabat numbering)
heavy: B1 heavy with N56D, R78K
chain: B1 chain
light: B1 light
ratio of amounts bound Z=Y/X (altered form / CE115HA000): 0.39

B12: CE115HA000 N53G one-arm antibody (antibody, human IgG1, kappa, L234A L235A, N297A, name in Kabat numbering)
heavy: B1 heavy with N56G, R78K
chain: B1 chain
light: B1 light
ratio of amounts bound Z=Y/X (altered form / CE115HA000): 0.5

B13: CE115HA000 N31Y one-arm antibody (antibody, human IgG1, kappa, L234A L235A, N297A, name in Kabat numbering)
heavy: B1 heavy with N31Y, R78K
chain: B1 chain
light: B1 light
ratio of amounts bound Z=Y/X (altered form / CE115HA000): 0.64

B14: CE115HA000 K75T one-arm antibody (antibody, human IgG1, kappa, L234A L235A, N297A, name in Kabat numbering)
heavy: B1 heavy with R78T
chain: B1 chain
light: B1 light
ratio of amounts bound Z=Y/X (altered form / CE115HA000): 0.84

B15: CE115HA000 N31I one-arm antibody (antibody, human IgG1, kappa, L234A L235A, N297A, name in Kabat numbering)
heavy: B1 heavy with N31I, R78K
chain: B1 chain
light: B1 light
ratio of amounts bound Z=Y/X (altered form / CE115HA000): 0.81

B16: CE115HA000 N53H one-arm antibody (antibody, human IgG1, kappa, L234A L235A, N297A, name in Kabat numbering)
heavy: B1 heavy with N56H, R78K
chain: B1 chain
light: B1 light
ratio of amounts bound Z=Y/X (altered form / CE115HA000): 0.76

B17: CE115HA000 N31G one-arm antibody (antibody, human IgG1, kappa, L234A L235A, N297A, name in Kabat numbering)
heavy: B1 heavy with N31G, R78K
chain: B1 chain
light: B1 light
ratio of amounts bound Z=Y/X (altered form / CE115HA000): 0.39

B18: CE115HA000 N31K one-arm antibody (antibody, human IgG1, kappa, L234A L235A, N297A, name in Kabat numbering)
heavy: B1 heavy with N31K, R78K
chain: B1 chain
light: B1 light
ratio of amounts bound Z=Y/X (altered form / CE115HA000): 1.01

B19: CE115HA000 N31S one-arm antibody (antibody, human IgG1, kappa, L234A L235A, N297A, name in Kabat numbering)
heavy: B1 heavy with N31S, R78K
chain: B1 chain
light: B1 light
ratio of amounts bound Z=Y/X (altered form / CE115HA000): 0.81

B20: CE115HA000 N53K one-arm antibody (antibody, human IgG1, kappa, L234A L235A, N297A, name in Kabat numbering)
heavy: B1 heavy with N56K, R78K
chain: B1 chain
light: B1 light
ratio of amounts bound Z=Y/X (altered form / CE115HA000): 0.78

B21: CE115HA000 N31H one-arm antibody (antibody, human IgG1, kappa, L234A L235A, N297A, name in Kabat numbering)
heavy: B1 heavy with N31H, R78K
chain: B1 chain
light: B1 light
ratio of amounts bound Z=Y/X (altered form / CE115HA000): 0.68

B22: CE115HA000 N31W one-arm antibody (antibody, human IgG1, kappa, L234A L235A, N297A, name in Kabat numbering)
heavy: B1 heavy with N31W, R78K
chain: B1 chain
light: B1 light
ratio of amounts bound Z=Y/X (altered form / CE115HA000): 0.63
